The source of these data is US11332546B2, “Protease inhibitory antibodies and methods of use thereof” (The Regents of The University of California, priority 2019, dated 2022).

One test deals with T1, cdMMP-12 wt (Homo sapiens, UniProt P39900).
T1 construct: hexahistidine (C); made in house; host or cells: E. coli BL21 (pET32b, cytoplasmic)
Briefly: Fibronectin proteolysis inhibition, cdMMP-12 wt (western blot). The format is biochemical. Conditions: 2 μM GM6001; 350 nM wt cdMMP-12, 200 nM fibronectin, 37° C. The method, then:
Inhibition tests with macromolecular substrates 10 μg/mL FITC-conjugated elastin (AnaSpec) was incubated with 7 nM cdMMP-12 D4/wt and 2-2000 nM purified Fab in 50 mM Tris-HCl, 150 mM NaCl, 5 mM CaCl2), 100 μM ZnCl2 pH 7.5. Generated fluorescent signals were measured at 12 h with λEx of 490 nm and λEm of 520 nm. […] The samples were separated on 5% non-reducing SDS-PAGE and analyzed by western blotting with anti-Fibronectin antibody (Abcam) and chemiluminescent substrate (Thermo Scientific). […] Assays without cdMMP-12s or Fabs were performed as controls.

Test [1] addresses T2, BACE1 (Homo sapiens, UniProt P56817).
T2 construct: human β-secretase 1 (BACE1, residue 46-457); made in house; host or cells: HEK293F (secreted, protein A purified)
Kind of test: FRET peptide inhibition assay, BACE1 (M-2420). Conditions: BACE-1, FRET peptide; for Ki: Fab, read-out: Inhibition Potency KI; for Inhibition Potency KI (associated IgG, in parentheses): IgG format. The format is biochemical.
Experimental: (§1) For inhibition tests, 1 μM Fabs were 2-fold serially diluted into protease specific assay buffer and incubated with 1-10 nM proteases for 30 min at room temperature. […] Inhibition percentages at given concentrations were calculated by comparing the initial reaction rates in the presence or absence of inhibitor. IC50 was determined as the concentration that achieved 50% inhibition, and KI values were calculated using KI=IC50/(S/Km+1). Vmax and Km at various Fab concentrations were measured to determine the inhibition type. FRET inhibition assays were also used for selectivity tests of isolated Fabs with the relevant proteases.

Test [2] addresses T2, BACE1. Kind of test: Binding kinetics by biolayer interferometry, Fabs/IgGs on BACE1. Conditions: for Kd: Fab, read-out: Binding Affinity KD; for Binding Affinity KD (associated IgG, in parentheses): IgG format. Background: Biolayer interferometry detects binding as a change in optical thickness at a sensor tip.
Experimental: Binding kinetics of produced antibodies towards associated protease targets were analyzed by using biolayer interferometry (ForteBio). For Fabs, biotinylated proteases were immobilized on streptavidin biosensors, and Fab binding to the sensors in absence of protease was monitored as backgrounds. For IgGs, protein A sensors were used and protease bindings without IgG were checked as backgrounds. kon and koff were determined for KD calculations. […] Fab in vitro stability was tested by incubating 1 μM Fab with 1 μM of the respective protease in the assay buffer for 12 hours and the samples were analyzed by SDS-PAGE.
For a further test, the system named is cdMMP-9. Kind of test: FRET inhibition selectivity test, cdMMP-9 (Example 1). The format is biochemical. The note with it: Fab at 500 nM.

Positions count from the first letter of the chain named.

T2 sequence (P56817 46-457): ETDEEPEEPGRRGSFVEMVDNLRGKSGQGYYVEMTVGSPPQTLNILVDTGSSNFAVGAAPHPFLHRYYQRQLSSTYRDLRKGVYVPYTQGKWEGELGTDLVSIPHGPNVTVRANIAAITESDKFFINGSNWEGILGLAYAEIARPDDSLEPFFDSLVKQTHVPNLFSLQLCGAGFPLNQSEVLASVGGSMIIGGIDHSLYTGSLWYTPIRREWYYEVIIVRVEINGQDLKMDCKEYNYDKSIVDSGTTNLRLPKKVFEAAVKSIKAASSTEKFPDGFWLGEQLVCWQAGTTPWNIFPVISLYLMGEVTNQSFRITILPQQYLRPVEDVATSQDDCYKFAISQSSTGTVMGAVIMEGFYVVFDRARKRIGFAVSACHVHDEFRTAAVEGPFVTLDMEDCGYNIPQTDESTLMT
T1 sequence (P39900 106-263): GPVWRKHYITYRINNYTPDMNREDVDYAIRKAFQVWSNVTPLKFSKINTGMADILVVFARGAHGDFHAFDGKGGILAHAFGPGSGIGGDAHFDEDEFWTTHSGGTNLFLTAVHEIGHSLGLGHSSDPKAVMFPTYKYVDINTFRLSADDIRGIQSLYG
Experimental for cdMMP-9: as §1

`CNC(=O)[C@H](Cc1c[nH]c2ccccc12)NC(=O)[C@@H](CC(=O)NO)CC(C)C` [GM6001, reference compound]: on cdMMP-12 wt, the “Fibronectin remaining after cdMMP-12 wt hydrolysis” value was “significant amounts of fibronectin remained”.

B1: Fab B1A4: anti-BACE-1 antibody clone; VL SEQ ID NO:33, VH SEQ ID NO:37, CDR-H3 SEQ ID NO:40 (antibody, V domains shown)
VH: EVQLVESGGGLVQPGGSLRLSCAASGFNISYSSIHWVRQAPGKGLEWVAYISPSSSYTSYADSVKGRFTISADTSKNTAYLQMNSLRAEDTAVYYCARHYYVSVGSGIDYWGQGTLVTVSSAS
VL: DIQMTQSPSSLSASVGDRVTITCRASQSVSSAVAWYQQKPGKAPKLLIYSASSLYSGVPSRFSGSRSGTDFTPTISSLQPEDFATYYCQQASASPYALITFGQGTKVEIKR
A word on the Ki: it is the equilibrium dissociation constant of an inhibitor or competing ligand from its target. One may read the Kd as the constant that tells how readily two partners part at equilibrium. Take B1: in the test with BACE1 [1], the Ki was 41 nM and the “Inhibition Potency KI (associated IgG, in parentheses)” value came out at 35 nM. For the same molecule, in the test with BACE1 [2], the dissociation constant (Kd) turned out to be 21 nM and the “Binding Affinity KD (associated IgG, in parentheses)” value was 16 nM.

B2: Fab B3B12: anti-BACE-1 antibody clone; VL SEQ ID NO:25, VH SEQ ID NO:29, CDR-H3 SEQ ID NO:32 (antibody, V domains shown)
VH: EVQLVESGGGLVQPGGSLRLSCAASGFNIPYSSMHWVRQAPGKGLEWVASISSYSSSTSYADSVKGRFTISADTSKNTAYLQMNSLRAEDTAVYYCARYICGHRWRDFDMWRARTGVNYAMDYWGQGTLVTVSSAS
VL: DIQMTQSPSSLSASVGDRVTITCRASQSVGTYLNWYQQKPGKAPKLLIYATSNLRSGVPSRFSGSGSGTDFTLTISSLQPEDFATYYCQQSYSIPRFTFGPGTKLEIKR
As for B2, in the test with BACE1 [1], the inhibitory constant (Ki) was determined as 23 nM and the “Inhibition Potency KI (associated IgG, in parentheses)” value amounted to 13 nM. Further, in the test with BACE1 [2], the equilibrium dissociation constant (Kd) came out at 10 nM and the “Binding Affinity KD (associated IgG, in parentheses)” value is on record as 7 nM.

B3: Fab 2B12: anti-MMP-14 antibody clone; VL SEQ ID NO:90, VH SEQ ID NO:5, CDR-H3 SEQ ID NO:8 (antibody, V domains shown)
VH: EVQLVESGGGLVQPGGSLRLSCAASGFNIYYSSMHWVRQAPGKGLEWVAYIYSSSSYTYYADSVKGRFTISADTSKNTAYLQMNSLRAEDTAVYYCARDCCSCVFSQSAGITLACVYVMDYWGQGTLVTVSSAS
VL: DIQMTQSPSSLSASVGDRVTITCRASQSVSSAVAWYQQKPGKAPKLLIYSASSLYSGVPSRFSGSRSGTDFTLTISSLQPEDFATYYCQQWGPHYAPITFGQGTKVEIKR
On to B3, for which the “Inhibition of cdMMP-9 (selectivity)” value in the test with cdMMP-9 is “did not inhibit”.

B4: Fab B1B3: anti-BACE-1 antibody clone; VL SEQ ID NO:104, VH SEQ ID NO:61, CDR-H3 SEQ ID NO:64 (antibody, V domains shown)
VH: EVQLVESGGGLVQPGGSLRLSCAASGFNISYYSMHWVRQAPGKGLEWVASISPYYGSTYYADSVKGRFTISADTSKNTAYLQMNSLRAEDTAVYYCARERSSCPVGWRDSRFGADGYGLEYWGQGTLVTVSSAS
VL: B3 VL with W91S, P93H, H94Y, Y95H, A96S, P97L
In the case of B4, in the test with BACE1 [1], the Ki amounted to 210 nM. For the same molecule, the Kd in the test with BACE1 [2] is 31 nM.

B5: Fab B2B2: anti-BACE-1 antibody clone; VL SEQ ID NO:44, VH SEQ ID NO:46, CDR-H3 SEQ ID NO:49 (antibody, V domains shown)
VH: EVQLVESGGGLVQPGGSLRLSCAASGFNISSYYMHWVRQAPGKGLEWVASIYSSYGYTYYADSVKGRFTISADTSKNTAYLQMNSLRAEDTAVYYCARYWGYYAWFGSHPWAYGAFDYWGQGTLVTVSSAS
VL: DIQMTQSPSSLSASVGDRVTITCRASQSVSSAVAWYQQKPGKAPKLLIYSASSLYSGVPSRFSGSRSGTDFTLTISSLQPEDFATYYCQQYGYYLITFGQGTKVEIKR
Turning to B5, the Ki with BACE1 [1] worked out at 87 nM. Moreover, the Kd with BACE1 [2] was 52 nM.

B6: Fab B2B9: anti-BACE-1 antibody clone; VL SEQ ID NO:96, VH SEQ ID NO:53, CDR-H3 SEQ ID NO:56 (antibody, V domains shown)
VH: EVQLVESGGGLVQPGGSLRLSCAASGFNISYSSMHWVRQAPGKGLEWVASIYPSYSYTSYADSVKGRFTISADTSKNTAYLQMNSLRAEDTAVYYCARSSSSYYYGMDYWGQGTLVTVSSAS
VL: B5 VL with Y91S, G92S, Y94S
For B6, the Ki with BACE1 [1] was 120 nM. Also, the dissociation constant Kd with BACE1 [2] is 110 nM.

B7: Fab B2B3: anti-BACE-1 antibody clone; VL SEQ ID NO:102, VH SEQ ID NO:50, CDR-H3 SEQ ID NO:52 (antibody, V domains shown)
VH: EVQLVESGGGLVQPGGSLRLSCAASGFNISYSSIHWVRQAPGKGLEWVAYISSYSSSTYYADSVKGRFTISADTSKNTAYLQMNSLRAEDTAVYYCARSASGIDYWGQGTLVTVSSAS
VL: B5 VL with Y91S, Y94A, L95P, I96F
Consider B7, for which the Ki in the test with BACE1 [1] came to 100 nM. In addition, in the test with BACE1 [2], the Kd came to 100 nM.

B8: Fab 1A5: anti-MMP-14 antibody clone; VL SEQ ID NO:92, VH SEQ ID NO:9, CDR-H3 SEQ ID NO:12 (antibody, V domains shown)
VH: EVQLVESGGGLVQPGGSLRLSCAASGFNLYYYYMHWVRQAPGKGLEWVAYIYPYSGSTYYADSVKGRFTISADTSKNTAYLQMNSLRAEDTAVYYCARLDFLMRDIYYDLGGGALGWLIKYAMDYWGQGTLVTVSSAS
VL: DIQMTQSPSSLSASVGDRVTITCRASQSVSSAVAWYQQKPGKAPKLLIYSASSLYSGVPSRFSGSRSGTDFTLTISSLQPEDFATYYCQQYSGPYPITFGQGTKVEIKR
As for B8, in the test with cdMMP-9, the “Inhibition of cdMMP-9 (selectivity)” value was “did not inhibit”.

B9: Fab B2B5: anti-BACE-1 antibody clone; VL SEQ ID NO:100, VH SEQ ID NO:41, CDR-H3 SEQ ID NO:43 (antibody, V domains shown)
VH: EVQLVESGGGLVQPGGSLRLSCAASGFNIYYSYMHWVRQAPGKGLEWVASIYPYYGSTYYADSVKGRFTISADTSKNTAYLQMNSLRAEDTAVYYCARWHGYPPGYSYYSSFSSSGFDYWGQGTLVTVSSAS
VL: B8 VL with L73P, Y91S, S92Y, G93F, P94S
On to B9, for which the Ki in the test with BACE1 [1] was determined as 77 nM. The equilibrium dissociation constant (Kd) with BACE1 [2] is 130 nM.
